Laboratory results reported in US20110306096A1 (PACIFIC BIOSCIENCES OF CALIFORNIA, published 2011).

B1: SEQ ID NO 11 (other, phi29)
chain: LNDIFNAQKIEWHHHHHHHHHHHMKHMPRKMYSCDFETTTKVEDCRVWAYGYMNIEDHSEYKIGNSLDEFMAWVLKVQADLYFHNLKFDGAFIINWLERNGFKWSADGLPNTYNTIISRMGQWYMIDICLGYKGKRKIHTVIYDSLKKLPFPVKKIAKDFKLTVLKGDIDYHKERPVGYKITPEEYAYIKNDIQIIAEALLIQFKQGLDRMTAGSDSLKGFKDIITTKKFKKVFPTLSLGLDKEVRYAYRGGFTWLNDRFKEKEIGEGMVFDVNSLYPAQMYSRLLPYGEPIVFEGKYVWDEDYPLHIQHIRCEFELKEGYIPTIQIKRSRFYKGNEYLKSSGGEIADLWLSNVDLELMKEHYDLYNVEYISGLKFKATTGLFKDFIDKWTYIKTTSEGAIKQLAKLMLNSLYGKFASNPDVTGKVPYLKENGALGFRLGEEETKDPVYTPMGVFITAWARYTTITAAQACYDRIIYCDTDSIHLTGTEIPDVIKDIVDPKKLGYWAHESTFKRAKYLRQKTYIQDIYMKEVDGKLVEGSPDDYTDIKFSVKCAGMTDKIKKEVTFENFKVGFSRKMKPKPVQVPGGVVLVDDTFTIK
modifications: biotin on the lysine of the biotinylation peptide (in-vivo biotinylation by biotin ligase)
notes: N-terminus-biotinylation peptide-His(10)-phi29 pol-C-terminus; expressed in E. coli co-expressing biotin ligase, Ni-NTA purified
B2: SEQ ID NO 8 (other, phi29)
chain: LNDFFEAQKIEWHHHHHHHHHHHMKHMPRKMYSCDFETTTKVEDCRVWAYGYMNIEDHSEYKIGNSLDEFMAWVLKVQADLYFHNLKFDGAFIINWLERNGFKWSADGLPNTYNTIISRMGQWYMIDICLGYKGKRKIHTVIYDSLKKLPFPVKKIAKDFKLTVLKGDIDYHKERPVGYKITPEEYAYIKNDIQIIAEALLIQFKQGLDRMTAGSDSLKGFKDIITTKKFKKVFPTLSLGLDKEVRYAYRGGFTWLNDRFKEKEIGEGMVFDVNSLYPAQMYSRLLPYGEPIVFEGKYVWDEDYPLHIQHIRCEFELKEGYIPTIQIKRSRFYKGNEYLKSSGGEIADLWLSNVDLELMKEHYDLYNVEYISGLKFKATTGLFKDFIDKWTYIKTTSEGAIKQLAKLMLNSLYGKFASNPDVTGKVPYLKENGALGFRLGEEETKDPVYTPMGVFITAWARYTTITAAQACYDRIIYCDTDSIHLTGTEIPDVIKDIVDPKKLGYWAHESTFKRAKYLRQKTYIQDIYMKEVDGKLVEGSPDDYTDIKFSVKCAGMTDKIKKEVTFENFKVGFSRKMKPKPVQVPGGVVLVDDTFTIK
modifications: biotin on the lysine of the biotinylation peptide (in-vivo biotinylation by biotin ligase)
notes: as for B1
B3: SEQ ID NO 4 (other, phi29)
chain: INDLFSAQKIEWHHHHHHHHHHHMKHMPRKMYSCDFETTTKVEDCRVWAYGYMNIEDHSEYKIGNSLDEFMAWVLKVQADLYFHNLKFDGAFIINWLERNGFKWSADGLPNTYNTIISRMGQWYMIDICLGYKGKRKIHTVIYDSLKKLPFPVKKIAKDFKLTVLKGDIDYHKERPVGYKITPEEYAYIKNDIQIIAEALLIQFKQGLDRMTAGSDSLKGFKDIITTKKFKKVFPTLSLGLDKEVRYAYRGGFTWLNDRFKEKEIGEGMVFDVNSLYPAQMYSRLLPYGEPIVFEGKYVWDEDYPLHIQHIRCEFELKEGYIPTIQIKRSRFYKGNEYLKSSGGEIADLWLSNVDLELMKEHYDLYNVEYISGLKFKATTGLFKDFIDKWTYIKTTSEGAIKQLAKLMLNSLYGKFASNPDVTGKVPYLKENGALGFRLGEEETKDPVYTPMGVFITAWARYTTITAAQACYDRIIYCDTDSIHLTGTEIPDVIKDIVDPKKLGYWAHESTFKRAKYLRQKTYIQDIYMKEVDGKLVEGSPDDYTDIKFSVKCAGMTDKIKKEVTFENFKVGFSRKMKPKPVQVPGGVVLVDDTFTIK
modifications: biotin on the lysine of the biotinylation peptide (in-vivo biotinylation by biotin ligase)
notes: as for B1
B4: SEQ ID NO 7 (other, phi29)
chain: LNDLFEAQKIEWHHHHHHHHHHHMKHMPRKMYSCDFETTTKVEDCRVWAYGYMNIEDHSEYKIGNSLDEFMAWVLKVQADLYFHNLKFDGAFIINWLERNGFKWSADGLPNTYNTIISRMGQWYMIDICLGYKGKRKIHTVIYDSLKKLPFPVKKIAKDFKLTVLKGDIDYHKERPVGYKITPEEYAYIKNDIQIIAEALLIQFKQGLDRMTAGSDSLKGFKDIITTKKFKKVFPTLSLGLDKEVRYAYRGGFTWLNDRFKEKEIGEGMVFDVNSLYPAQMYSRLLPYGEPIVFEGKYVWDEDYPLHIQHIRCEFELKEGYIPTIQIKRSRFYKGNEYLKSSGGEIADLWLSNVDLELMKEHYDLYNVEYISGLKFKATTGLFKDFIDKWTYIKTTSEGAIKQLAKLMLNSLYGKFASNPDVTGKVPYLKENGALGFRLGEEETKDPVYTPMGVFITAWARYTTITAAQACYDRIIYCDTDSIHLTGTEIPDVIKDIVDPKKLGYWAHESTFKRAKYLRQKTYIQDIYMKEVDGKLVEGSPDDYTDIKFSVKCAGMTDKIKKEVTFENFKVGFSRKMKPKPVQVPGGVVLVDDTFTIK
modifications: biotin on the lysine of the biotinylation peptide (in-vivo biotinylation by biotin ligase)
notes: as for B1
B5: SEQ ID NO 10 (other, phi29)
chain: LNDIFHAQKIEWHHHHHHHHHHHMKHMPRKMYSCDFETTTKVEDCRVWAYGYMNIEDHSEYKIGNSLDEFMAWVLKVQADLYFHNLKFDGAFIINWLERNGFKWSADGLPNTYNTIISRMGQWYMIDICLGYKGKRKIHTVIYDSLKKLPFPVKKIAKDFKLTVLKGDIDYHKERPVGYKITPEEYAYIKNDIQIIAEALLIQFKQGLDRMTAGSDSLKGFKDIITTKKFKKVFPTLSLGLDKEVRYAYRGGFTWLNDRFKEKEIGEGMVFDVNSLYPAQMYSRLLPYGEPIVFEGKYVWDEDYPLHIQHIRCEFELKEGYIPTIQIKRSRFYKGNEYLKSSGGEIADLWLSNVDLELMKEHYDLYNVEYISGLKFKATTGLFKDFIDKWTYIKTTSEGAIKQLAKLMLNSLYGKFASNPDVTGKVPYLKENGALGFRLGEEETKDPVYTPMGVFITAWARYTTITAAQACYDRIIYCDTDSIHLTGTEIPDVIKDIVDPKKLGYWAHESTFKRAKYLRQKTYIQDIYMKEVDGKLVEGSPDDYTDIKFSVKCAGMTDKIKKEVTFENFKVGFSRKMKPKPVQVPGGVVLVDDTFTIK
modifications: biotin on the lysine of the biotinylation peptide (in-vivo biotinylation by biotin ligase)
notes: as for B1
B6: SEQ ID NO 3 (other, phi29)
chain: LNDFFNAQKIEWHHHHHHHHHHHMKHMPRKMYSCDFETTTKVEDCRVWAYGYMNIEDHSEYKIGNSLDEFMAWVLKVQADLYFHNLKFDGAFIINWLERNGFKWSADGLPNTYNTIISRMGQWYMIDICLGYKGKRKIHTVIYDSLKKLPFPVKKIAKDFKLTVLKGDIDYHKERPVGYKITPEEYAYIKNDIQIIAEALLIQFKQGLDRMTAGSDSLKGFKDIITTKKFKKVFPTLSLGLDKEVRYAYRGGFTWLNDRFKEKEIGEGMVFDVNSLYPAQMYSRLLPYGEPIVFEGKYVWDEDYPLHIQHIRCEFELKEGYIPTIQIKRSRFYKGNEYLKSSGGEIADLWLSNVDLELMKEHYDLYNVEYISGLKFKATTGLFKDFIDKWTYIKTTSEGAIKQLAKLMLNSLYGKFASNPDVTGKVPYLKENGALGFRLGEEETKDPVYTPMGVFITAWARYTTITAAQACYDRIIYCDTDSIHLTGTEIPDVIKDIVDPKKLGYWAHESTFKRAKYLRQKTYIQDIYMKEVDGKLVEGSPDDYTDIKFSVKCAGMTDKIKKEVTFENFKVGFSRKMKPKPVQVPGGVVLVDDTFTIK
modifications: biotin on the lysine of the biotinylation peptide (in-vivo biotinylation by biotin ligase)
notes: as for B1
B7: SEQ ID NO 12 (other, phi29)
chain: LNDIFSAQKIEWHHHHHHHHHHHMKHMPRKMYSCDFETTTKVEDCRVWAYGYMNIEDHSEYKIGNSLDEFMAWVLKVQADLYFHNLKFDGAFIINWLERNGFKWSADGLPNTYNTIISRMGQWYMIDICLGYKGKRKIHTVIYDSLKKLPFPVKKIAKDFKLTVLKGDIDYHKERPVGYKITPEEYAYIKNDIQIIAEALLIQFKQGLDRMTAGSDSLKGFKDIITTKKFKKVFPTLSLGLDKEVRYAYRGGFTWLNDRFKEKEIGEGMVFDVNSLYPAQMYSRLLPYGEPIVFEGKYVWDEDYPLHIQHIRCEFELKEGYIPTIQIKRSRFYKGNEYLKSSGGEIADLWLSNVDLELMKEHYDLYNVEYISGLKFKATTGLFKDFIDKWTYIKTTSEGAIKQLAKLMLNSLYGKFASNPDVTGKVPYLKENGALGFRLGEEETKDPVYTPMGVFITAWARYTTITAAQACYDRIIYCDTDSIHLTGTEIPDVIKDIVDPKKLGYWAHESTFKRAKYLRQKTYIQDIYMKEVDGKLVEGSPDDYTDIKFSVKCAGMTDKIKKEVTFENFKVGFSRKMKPKPVQVPGGVVLVDDTFTIK
modifications: biotin on the lysine of the biotinylation peptide (in-vivo biotinylation by biotin ligase)
notes: as for B1
B8: SEQ ID NO 5 (other, phi29)
chain: INDIFEAQKIEWHHHHHHHHHHHMKHMPRKMYSCDFETTTKVEDCRVWAYGYMNIEDHSEYKIGNSLDEFMAWVLKVQADLYFHNLKFDGAFIINWLERNGFKWSADGLPNTYNTIISRMGQWYMIDICLGYKGKRKIHTVIYDSLKKLPFPVKKIAKDFKLTVLKGDIDYHKERPVGYKITPEEYAYIKNDIQIIAEALLIQFKQGLDRMTAGSDSLKGFKDIITTKKFKKVFPTLSLGLDKEVRYAYRGGFTWLNDRFKEKEIGEGMVFDVNSLYPAQMYSRLLPYGEPIVFEGKYVWDEDYPLHIQHIRCEFELKEGYIPTIQIKRSRFYKGNEYLKSSGGEIADLWLSNVDLELMKEHYDLYNVEYISGLKFKATTGLFKDFIDKWTYIKTTSEGAIKQLAKLMLNSLYGKFASNPDVTGKVPYLKENGALGFRLGEEETKDPVYTPMGVFITAWARYTTITAAQACYDRIIYCDTDSIHLTGTEIPDVIKDIVDPKKLGYWAHESTFKRAKYLRQKTYIQDIYMKEVDGKLVEGSPDDYTDIKFSVKCAGMTDKIKKEVTFENFKVGFSRKMKPKPVQVPGGVVLVDDTFTIK
modifications: biotin on the lysine of the biotinylation peptide (in-vivo biotinylation by biotin ligase)
notes: as for B1
B9: SEQ ID NO 6 (other, phi29)
chain: LNLIFEAQKIEWHHHHHHHHHHHMKHMPRKMYSCDFETTTKVEDCRVWAYGYMNIEDHSEYKIGNSLDEFMAWVLKVQADLYFHNLKFDGAFIINWLERNGFKWSADGLPNTYNTIISRMGQWYMIDICLGYKGKRKIHTVIYDSLKKLPFPVKKIAKDFKLTVLKGDIDYHKERPVGYKITPEEYAYIKNDIQIIAEALLIQFKQGLDRMTAGSDSLKGFKDIITTKKFKKVFPTLSLGLDKEVRYAYRGGFTWLNDRFKEKEIGEGMVFDVNSLYPAQMYSRLLPYGEPIVFEGKYVWDEDYPLHIQHIRCEFELKEGYIPTIQIKRSRFYKGNEYLKSSGGEIADLWLSNVDLELMKEHYDLYNVEYISGLKFKATTGLFKDFIDKWTYIKTTSEGAIKQLAKLMLNSLYGKFASNPDVTGKVPYLKENGALGFRLGEEETKDPVYTPMGVFITAWARYTTITAAQACYDRIIYCDTDSIHLTGTEIPDVIKDIVDPKKLGYWAHESTFKRAKYLRQKTYIQDIYMKEVDGKLVEGSPDDYTDIKFSVKCAGMTDKIKKEVTFENFKVGFSRKMKPKPVQVPGGVVLVDDTFTIK
modifications: biotin on the lysine of the biotinylation peptide (in-vivo biotinylation by biotin ligase)
notes: as for B1

What follows are binders tested against T1, streptavidin (UniProt P22629 37-163, limits assumed) (assay: HPLC after mixing the purified fusion protein with a 2-fold molar excess of streptavidin).
T1 construct: Used at a 2-fold molar excess over the fusion protein
Experimental: Each of the DNA sequences encoding the affinity peptides was added individually to the 5′ terminus of a His(10)-tagged phi29 DNA polymerase gene such that the polypeptide expressed from each construct was a fusion protein consisting of: N-terminus-biotinylation peptide-His(10)-phi29 pol-C-terminus. Each gene was expressed in E. coli cells co-expressing biotin ligase in culture medium containing biotin. These conditions are known to effect the in-vivo biotinylation of biotinylation peptides. Proteins were purified using Ni-NTA columns and then mixed with a 2-fold molar excess of streptavidin under conditions known to effect binding of streptavidin to biotinylated fusion proteins.
The degree of biotinylation of each protein was assessed by HPLC. […] None of the biotinylation peptides affected the polymerase activity when tested in a branching fraction assay performed, for example, as described in U.S. patent application No. 2010/0112645.

T1 sequence (P22629 37-163 limits assumed): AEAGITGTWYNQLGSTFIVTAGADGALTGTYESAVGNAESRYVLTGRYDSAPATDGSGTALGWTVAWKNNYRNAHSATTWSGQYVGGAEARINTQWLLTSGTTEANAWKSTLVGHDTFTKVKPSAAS

Row | Binder | percent bound to streptavidin [%]
1 | B1 | ~100
2 | B2 | ~100
3 | B3 | ~100
4 | B4 | ~100
5 | B5 | ~100
6 | B6 | ~100
7 | B7 | ~100
8 | B8 | ~100
9 | B9 | ~100
